US20170138958A1

How the values were obtained:
[1] = molecular target: Fr. 3 antigen (C-terminal region, zinc finger region, positions 294-449 of WT1) (human) (UniProt P19544); assay: antigen inhibition ELISA on immobilised Fr. 3; antibody whose binding is inhibited: C-19 (PoAb)
[2] = molecular target: Fr. 3 antigen (C-terminal region, zinc finger region, positions 294-449 of WT1) (human) (UniProt P19544); assay: antigen inhibition ELISA on immobilised Fr. 3; antibody whose binding is inhibited: serum sample No. 7
[3] = molecular target: Fr. 3 antigen (C-terminal region, zinc finger region, positions 294-449 of WT1) (human) (UniProt P19544); assay: antigen inhibition ELISA on immobilised Fr. 3; antibody whose binding is inhibited: serum sample No. 9
[4] = molecular target: Fr. 3 antigen (C-terminal region, zinc finger region, positions 294-449 of WT1) (human) (UniProt P19544); assay: antigen inhibition ELISA on immobilised Fr. 3; antibody whose binding is inhibited: serum sample No. 3

Chain of UniProt P19544 (P19544 294-449): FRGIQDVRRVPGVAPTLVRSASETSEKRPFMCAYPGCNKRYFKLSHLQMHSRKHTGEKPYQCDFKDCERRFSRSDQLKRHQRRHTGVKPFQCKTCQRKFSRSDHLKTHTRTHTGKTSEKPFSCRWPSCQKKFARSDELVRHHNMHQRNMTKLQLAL

Fr. 1 antigen (recombinant hWT1 Fr. 1, N-terminal region, positions 1-182 of WT1) (from UniProt P19544 1-182)
percent inhibition [1]: 25%
percent inhibition [2]: 10%
percent inhibition [3]: 40%

Fr. 2 antigen (hWT1 Fr. 2, central region, positions 181-324 of WT1) (from UniProt P19544 181-324)
percent inhibition [1]: 50%
percent inhibition [4]: 70%
percent inhibition [2]: 20%
